Results: US20040185507A1

B1: ReoPro (c7E3 Fab) (Fab, INN chains, looked up, V domains shown)
VH: EVQLQQSGTVLARPGASVKMSCEASGYTFTNYWMHWVKQRPGQGLEWIGAIYPGNSDTSYIQKFKGKAKLTAVTSTTSVYMELSSLTNEDSAVYYCTLYDGYYVFAYWGQGTLVTVSA
VL: EIVLTQSPVTLSVTPGDSVSLSCRASRDISNNLHWFQQTSHESPRLLIKYASQSMSGIPSRFSGSGSGTDFTLSINSVETEDFGMYFCQQTNSWPYTFGGGTKLEIK
modifications: Fab 125I label
B2: c7E3 IgG (antibody, INN chains, looked up, V domains shown)
VH: B1 VH
VL: B1 VL
modifications: IgG

Key:
[1] = molecular target: αvβ3 integrin on human cells (human) (UniProt P06756); assay: 125-I antibody saturation binding on M21 cells (n = 7)
Chain of αvβ3 integrin on human cells (human) (P06756 31-1048, chain 1 of 2): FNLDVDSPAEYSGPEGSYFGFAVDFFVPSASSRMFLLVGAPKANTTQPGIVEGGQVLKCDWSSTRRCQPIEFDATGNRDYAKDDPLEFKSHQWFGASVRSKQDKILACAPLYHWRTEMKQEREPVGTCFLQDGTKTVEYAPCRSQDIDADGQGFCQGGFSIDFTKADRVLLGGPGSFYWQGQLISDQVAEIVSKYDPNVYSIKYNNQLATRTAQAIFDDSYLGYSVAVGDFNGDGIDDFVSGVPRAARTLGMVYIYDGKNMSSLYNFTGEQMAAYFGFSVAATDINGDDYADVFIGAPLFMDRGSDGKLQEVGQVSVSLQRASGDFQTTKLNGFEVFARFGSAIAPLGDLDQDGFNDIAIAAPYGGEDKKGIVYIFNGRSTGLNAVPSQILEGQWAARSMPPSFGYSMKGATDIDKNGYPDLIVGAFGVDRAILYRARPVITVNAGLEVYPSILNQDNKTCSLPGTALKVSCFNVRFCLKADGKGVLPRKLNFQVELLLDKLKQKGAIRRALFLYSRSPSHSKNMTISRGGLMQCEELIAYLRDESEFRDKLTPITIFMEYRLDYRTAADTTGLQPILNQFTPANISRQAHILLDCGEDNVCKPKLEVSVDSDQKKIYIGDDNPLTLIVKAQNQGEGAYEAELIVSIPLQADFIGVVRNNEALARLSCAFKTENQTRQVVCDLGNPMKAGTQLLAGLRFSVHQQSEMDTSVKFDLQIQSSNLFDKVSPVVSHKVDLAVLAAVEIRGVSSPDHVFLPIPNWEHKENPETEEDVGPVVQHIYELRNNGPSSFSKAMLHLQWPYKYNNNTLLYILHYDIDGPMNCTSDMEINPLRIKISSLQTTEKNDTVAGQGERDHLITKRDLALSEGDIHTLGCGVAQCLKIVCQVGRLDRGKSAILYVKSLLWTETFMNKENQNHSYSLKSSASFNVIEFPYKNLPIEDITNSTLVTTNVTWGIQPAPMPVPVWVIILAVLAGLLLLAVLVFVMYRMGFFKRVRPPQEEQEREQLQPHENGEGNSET
Chain of αvβ3 integrin on human cells (human) (P05106 27-788, chain 2 of 2, further chain): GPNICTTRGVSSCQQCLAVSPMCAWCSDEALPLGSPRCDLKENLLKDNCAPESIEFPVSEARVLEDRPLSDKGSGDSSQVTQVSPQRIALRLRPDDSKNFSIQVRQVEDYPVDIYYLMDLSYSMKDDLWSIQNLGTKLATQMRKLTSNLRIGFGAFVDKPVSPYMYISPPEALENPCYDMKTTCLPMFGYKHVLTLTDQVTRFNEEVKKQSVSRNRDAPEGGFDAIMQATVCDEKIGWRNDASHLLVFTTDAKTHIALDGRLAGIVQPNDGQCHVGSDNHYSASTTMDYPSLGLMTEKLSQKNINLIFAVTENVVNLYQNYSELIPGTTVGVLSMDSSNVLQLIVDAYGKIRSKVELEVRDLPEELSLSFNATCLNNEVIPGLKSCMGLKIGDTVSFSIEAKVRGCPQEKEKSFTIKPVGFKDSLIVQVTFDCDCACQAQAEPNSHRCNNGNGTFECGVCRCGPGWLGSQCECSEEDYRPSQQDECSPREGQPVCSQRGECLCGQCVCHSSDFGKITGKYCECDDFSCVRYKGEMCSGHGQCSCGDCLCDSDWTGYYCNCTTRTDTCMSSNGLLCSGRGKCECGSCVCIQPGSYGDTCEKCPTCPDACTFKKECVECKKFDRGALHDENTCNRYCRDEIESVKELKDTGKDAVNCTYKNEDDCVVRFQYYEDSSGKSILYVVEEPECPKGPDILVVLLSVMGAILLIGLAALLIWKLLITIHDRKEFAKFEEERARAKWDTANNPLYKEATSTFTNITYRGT

[2] = molecular target: αvβ3 integrin on human cells (human) (UniProt P06756); assay: 125-I antibody saturation binding on A375S2 cells (n = 3)
[3] = molecular target: αvβ3 integrin on human cells (human) (UniProt P06756); assay: cell-based or functional assay
[4] = molecular target: αvβ3 integrin on human cells (human) (UniProt P06756); assay: 125-I antibody saturation binding on A375S2 cells (n = 6)
[5] = molecular target: human αVβ3 integrin, purified (human) (UniProt P06756); assay: ELISA saturation binding on alphaVbeta3 coated plate, non-linear regression (n = 6)
Chain of human αVβ3 integrin, purified (human) (P06756 31-1048, form in doubt, chain 1 of 2): as the sequence (P06756 31-1048, chain 1 of 2) above
Chain of human αVβ3 integrin, purified (human) (P05106 27-788, form in doubt, chain 2 of 2, further chain): as the sequence (P05106 27-788, chain 2 of 2, further chain) above

[6] = molecular target: αvβ3 integrin on human cells (human) (UniProt P06756); assay: 125-I antibody saturation binding on M21 cells (n = 3)
[7] = molecular target: human αVβ3 integrin, purified (human) (UniProt P06756); assay: ELISA on αVβ3 coated plates

Binder | Receptors per cell (receptors/cell) [1] | Kd [2] [µM] | A375S.2 cell adhesion to fibrin, % of no-antibody control (10 µg/ml) [3] [%] | A375S.2 cell adhesion to fibrinogen, % of no-antibody control (10 µg/ml) [3] [%] | A375S.2 cell adhesion to fibronectin, % of no-antibody control (10 µg/ml) [3] [%] | A375S.2 cell adhesion to gelatin, % of no-antibody control (10 µg/ml) [3] [%] | A375S.2 cell adhesion to type I collagen, % of no-antibody control (10 µg/ml) [3] [%] | A375S.2 cell adhesion to vitronectin, % of no-antibody control (10 µg/ml) [3] [%] | HUVEC adhesion to fibrin, % of no-antibody control (10 µg/ml) [3] [%] | HUVEC adhesion to fibrinogen, % of no-antibody control (10 µg/ml) [3] [%] | HUVEC adhesion to fibronectin, % of no-antibody control (10 µg/ml) [3] [%] | HUVEC adhesion to gelatin, % of no-antibody control (10 µg/ml) [3] [%] | HUVEC adhesion to type I collagen, % of no-antibody control (10 µg/ml) [3] [%] | HUVEC adhesion to vitronectin, % of no-antibody control (10 µg/ml) [3] [%] | Receptors per cell (receptors/cell) [4] | Kd [5] [µM] | Kd [6] [µM] | EC50 [7] [mg/L]
B1 | 660000 | 0.022 | 12.9 | 6.5 | 104 | 6 | 93.1 | 38.1 | 35.8 | 8.7 | 96.3 | 2.5 | 99.6 | 54.9 | 370000 | 0.00025 | 0.01 | 
B2 |  |  |  |  |  |  |  |  |  |  |  |  |  |  |  |  |  | 0.07
